# Results: US20030219441A1
# Experiments:
# [1] = target: Recombinant human truncated Tissue Factor (tTF) (human) (UniProt P13726); test: cell-based or functional assay
# [2] = target: I-A^d MHC Class II antigen on A20 cells (mouse) (UniProt P04228); test: 125I-labelled Fab' binding to A20 cells
# [3] = target: I-A^d MHC Class II antigen on A20 cells (mouse) (UniProt P04228); test: method not given
# [4] = target: Recombinant human truncated Tissue Factor (tTF) (human) (UniProt P13726); test: 125I-tTF (in molar excess) tethered to A20 cells (I-A^d) through the bispecific antibody, at saturation
# Chain of UniProt P13726 (P13726 33-251): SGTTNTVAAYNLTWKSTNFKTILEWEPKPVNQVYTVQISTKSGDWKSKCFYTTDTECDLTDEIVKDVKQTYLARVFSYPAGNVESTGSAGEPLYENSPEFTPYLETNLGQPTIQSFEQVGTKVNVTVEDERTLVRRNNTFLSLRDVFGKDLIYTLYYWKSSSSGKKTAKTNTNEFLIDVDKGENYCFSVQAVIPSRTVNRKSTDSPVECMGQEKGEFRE
# Chain of UniProt P04228 (P04228 24-256, chain 1 of 2): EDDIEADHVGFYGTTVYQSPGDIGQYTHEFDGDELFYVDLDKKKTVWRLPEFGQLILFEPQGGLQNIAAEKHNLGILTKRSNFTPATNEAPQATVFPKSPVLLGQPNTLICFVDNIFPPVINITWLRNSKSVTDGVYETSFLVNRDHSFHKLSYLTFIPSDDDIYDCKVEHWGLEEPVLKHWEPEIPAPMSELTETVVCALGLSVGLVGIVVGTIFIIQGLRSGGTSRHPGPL
# Chain of UniProt P04228 (P01921 28-265, chain 2 of 2, further chain): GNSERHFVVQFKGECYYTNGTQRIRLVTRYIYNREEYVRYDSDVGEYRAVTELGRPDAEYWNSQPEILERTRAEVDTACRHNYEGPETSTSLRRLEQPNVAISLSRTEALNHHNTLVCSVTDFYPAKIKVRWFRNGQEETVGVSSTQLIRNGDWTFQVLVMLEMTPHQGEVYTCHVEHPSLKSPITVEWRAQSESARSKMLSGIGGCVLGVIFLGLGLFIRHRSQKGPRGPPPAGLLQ
Substance,Coagulation time (sec) of mouse plasma added to A20 cells incubated with the reagents [1],"coagulation time of mouse plasma, A20 cells incubated with 21.5 nM bispecific antibody and 69 nM tTF [1]",also measured
10H10 F(ab')2,160 s,–,–
10H10 Fab',162 s,–,–
B21-2 F(ab')2,168 s,–,–
B21-2 Fab′,165 s,–,concentration at which saturation of binding is reached [2]: 21.5 nM
B21-2 antibody,–,–,fold better affinity than M5/114 [3]: 10 fold
B21-2/10H10 bispecific antibody,36 s,60 s,molecules of tTF bound per A20 cell (molecules per cell) [4]: 310000
B21-2/OX7 bispecific antibody,165 s,140 s,–
SFR8/10H10 bispecific antibody,154 s,140 s,–
